From patent US20120207788A1 (BIOMAY, published 2012)
Blank lines part the entries; values can stand above or below the binder they belong to.

Target: serum IgE from grass pollen allergic patients
Test: cell-based or functional assay

CD203c expression on human basophils isolated from grass pollen allergic patients: 10 fold
B1: hybrid molecule B (other)
chain: MAVKQAYAATVATAPEVKYTVFETALKKAITAMSEAQKAAKPAAAATATATAAVGAATGAATAATGGYKVAEEVKVIPAGELQVIEKVDAAFKVAATAANAAPANDKFTVFEAAFNDAIKASTGGAYESYKFIPALEAIPKVPPGPNITATYGDKWLDAKSTWYGKPTGAGPKDNGGACGYKDVDKPPFSGMTGCGNTPIFKSAGELELQFRRVKCKYPEGTKVTFHVEKGSNPNYLALLVKYVNGDGDVVAVDIKEKGKDKWIELKESWGAIWRIDTPDKLHHHHHH

CD203c expression on human basophils isolated from grass pollen allergic patients: 10 fold
B2: hybrid molecule C (other)
chain: MGAASNKAFAEGLSGEPKGAAESSSKAALTSKLDAAYKLAYKTAEGATPEAKYDAYVATLSEALRIIAGTLEVHAVKPAADLGYGPATPAAPAAGYTPATPAAPAEAAPAGKATTEEQKLIEKINAGFKAALAAAAGVQPADKYRTFVATFSGRGCGSCFEIKCTKPEACSGEPVVVHITDDNEEPIAPYHFDLSGHAFGAMAKKGDEQKLRTGPFTVRYTTEGGTKTEAEDVIPEGWKADTSYESKHHHHHH

CD203c expression on human basophils isolated from grass pollen allergic patients: 10 fold
B3: hybrid molecule Q (other)
chain: MFRFLTEKGMKNVFDDVVPEKYTIGATYAPEEDEWVAMTKGEGGVWTFDSEEPLQGPFNADKYKTFEAAFTVSSKRNLADAVSKAPQLVPKLDEVYNAAYNAADHAAPEDKYEAFVLHFSEALRIIAGTPEVHAVKPGAVPKVTFTVEKGSNEKHLAVLVKYEGDTMAEVELREHGSHHHHHH

CD203c expression on human basophils isolated from grass pollen allergic patients: 10 fold
B4: hybrid molecule P (other)
chain: MGAASNKAFAEGLSGEPKGAAESSSKAALTSKLDAAYKLAYKTAEGATPEAKYDAYVATLSEALRIIAGTLEVHAVKPAADLGYGPATPAAPAAGYTPATPAAPAEAAPAGKATTEEQKLIEKINAGFKAALAAAAGVQPADKYRTFVATFSGRGCGSCFEIKCTKPEACSGEPVVVHITDDNEEPIAPYHFDLSGHAFGAMAKKGDEQKLRTGPFTVRYTTEGGTKTEAEDVIPEGWKADTSYESKAEEVKVIPAGELQVIEKVDAAFKVAATAANAAPAAVKQAYAATVATAPEVKYTVFETALKKAITAMSEAQKAAKPAAAATATATAAVGAATGAATAATGGYKVNDKFTVFEAAFNDAIKASTGGAYESYKFIPALEAIPKVPPGPNITATYGDKWLDAKSTWYGKPTGASAGELELQFRRVKCKYPEGTKVTFHVEKGSNPNYLALLVKYVNGDGDVVAVDIKEKGKDKWIELKESWGAIWRIDTPDKLGPKDNGGACGYKDVDKPPFSGMTGCGNTPIFKHHHHHH
